Assay results from publication PMC9923667.

Biological target: HPIV3 fusion (F) protein stabilized in the prefusion conformation (HPIV3 preF) (human parainfluenza virus type 3) (UniProt P06828)
Assay: cryo-EM structure

Substance: HPIV3 fusion (F) protein stabilized in the prefusion conformation (HPIV3 preF) (from UniProt P06828 19-481) (natural protein)
- stoichiometry N: 3
